The values that follow are results of earlier work, collected in paper PMC10974892.

pKd: −log10 of the molar value.

As usually defined, the pKd is −log10 of the Kd, conventionally taken in molar units.

The target in series [1] is intelectin-1 (hIntL-1) (Homo sapiens) (UniProt Q8WWA0).
The next series addresses PhoE (Escherichia coli) (UniProt P02932).
The target of the next series is OmpC (Escherichia coli) (UniProt P06996).
Sequence of UniProt P06996 (P06996 22-367): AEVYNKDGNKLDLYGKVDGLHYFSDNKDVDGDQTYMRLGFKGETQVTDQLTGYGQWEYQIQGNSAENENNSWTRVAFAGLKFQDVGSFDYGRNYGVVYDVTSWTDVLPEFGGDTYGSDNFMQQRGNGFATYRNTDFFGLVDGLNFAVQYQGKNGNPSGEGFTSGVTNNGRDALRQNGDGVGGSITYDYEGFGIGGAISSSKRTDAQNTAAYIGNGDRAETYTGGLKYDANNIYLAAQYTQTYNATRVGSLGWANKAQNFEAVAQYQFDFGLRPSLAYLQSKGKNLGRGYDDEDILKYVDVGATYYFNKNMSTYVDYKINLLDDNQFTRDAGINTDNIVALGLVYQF

Sequence of UniProt Q8WWA0 (Q8WWA0 19-298): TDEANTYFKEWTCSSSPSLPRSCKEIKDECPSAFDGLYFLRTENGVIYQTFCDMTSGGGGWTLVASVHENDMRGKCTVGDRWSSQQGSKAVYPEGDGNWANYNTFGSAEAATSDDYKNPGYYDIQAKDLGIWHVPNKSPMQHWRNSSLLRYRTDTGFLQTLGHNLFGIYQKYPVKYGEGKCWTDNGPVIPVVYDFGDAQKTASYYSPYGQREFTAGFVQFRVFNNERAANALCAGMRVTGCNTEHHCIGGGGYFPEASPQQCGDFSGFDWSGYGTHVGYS
Sequence of UniProt P02932 (P02932 22-351): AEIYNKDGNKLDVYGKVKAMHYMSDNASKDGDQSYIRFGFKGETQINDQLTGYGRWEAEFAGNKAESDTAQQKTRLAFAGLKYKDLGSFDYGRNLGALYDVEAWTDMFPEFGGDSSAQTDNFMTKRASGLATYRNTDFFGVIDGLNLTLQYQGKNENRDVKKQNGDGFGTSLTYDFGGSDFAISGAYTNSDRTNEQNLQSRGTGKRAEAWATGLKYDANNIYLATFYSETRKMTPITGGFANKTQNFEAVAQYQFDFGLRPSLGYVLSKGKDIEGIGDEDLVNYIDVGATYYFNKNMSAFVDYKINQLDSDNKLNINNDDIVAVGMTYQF

Regarding lactoferrin (from UniProt P02788), the negative logarithm of the Kd (pKd) in series [1] was 6.30; with PhoE (Escherichia coli), 6.99; in the series with OmpC (Escherichia coli), 7.41.
